Consider 3 proteins from paper doi:10.1101/586461 (bioRxiv, 2019).

Data set [1] concerns the molecule itself. The experiment in a line: cryo-electron tomography.
Data set [2] concerns the molecule itself. The experiment in a line: negative stain EM.

B1: Drosophila dynamin Shibire (Shi), wild type (natural protein)
chain: MDSLITIVNKLQDAFTSLGVHMQLDLPQIAVVGGQSAGKSSVLENFVGKDFLPRGSGIVTRRPLILQLINGVTEYGEFLHIKGKKFSSFDEIRKEIEDETDRVTGSNKGISNIPINLRVYSPHVLNLTLIDLPGLTKVAIGDQPVDIEQQIKQMIFQFIRKETCLILAVTPANTDLANSDALKLAKEVDPQGVRTIGVITKLDLMDEGTDARDILENKLLPLRRGYIGVVNRSQKDIEGRKDIHQALAAERKFFLSHPSYRHMADRLGTPYLQRVLNQQLTNHIRDTLPGLRDKLQKQMLTLEKEVEEFKHFQPGDASIKTKAMLQMIQQLQSDFERTIEGSGSALVNTNELSGGAKINRIFHERLRFEIVKMACDEKELRREISFAIRNIHGIRVGLFTPDMAFEAIVKRQIALLKEPVIKCVDLVVQELSVVVRMCTAKMSRYPRLREETERIITTHVRQREHSCKEQILLLIDFELAYMNTNHEDFIGFANAQNKSENANKTGTRQLGNQVIRKGHMVIQNLGIMKGGSRPYWFVLTSESISWYKDEDEKEKKFMLPLDGLKLRDIEQGFMSMSRRVTFALFSPDGRNVYKDYKQLELSCETVEDVESWKASFLRAGVYPEKQETQENGDESASEESSSDPQLERQVETIRNLVDSYMKIVTKTTRDMVPKAIMMLIINNAKDFINGELLAHLYASGDQAQMMEESAESATRREEMLRMYRACKDALQIIGDVSMATVSSPLPPPVKNDWLPSGLDNPRLSPPSPGGVRGKPGPPAQSSLGGRNPPLPPSTGRPAPAIPNRPGGGAPPLPGGRPGGSLPPPMLPSRVSGAVGGAIVQQSGANRYVPESMRGQVNQAVGQAAINELSNAFSSRFK
In the case of B1, in data set [1], the binding result is on record as “binds”.

B2: non-tagged human dynamin 1 (hDyn1) (natural protein)
chain: MGNRGMEDLIPLVNRLQDAFSAIGQNADLDLPQIAVVGGQSAGKSSVLENFVGRDFLPRGSGIVTRRPLVLQLVNATTEYAEFLHCKGKKFTDFEEVRLEIEAETDRVTGTNKGISPVPINLRVYSPHVLNLTLVDLPGMTKVPVGDQPPDIEFQIRDMLMQFVTKENCLILAVSPANSDLANSDALKVAKEVDPQGQRTIGVITKLDLMDEGTDARDVLENKLLPLRRGYIGVVNRSQKDIDGKKDITAALAAERKFFLSHPSYRHLADRMGTPYLQKVLNQQLTNHIRDTLPGLRNKLQSQLLSIEKEVEEYKNFRPDDPARKTKALLQMVQQFAVDFEKRIEGSGDQIDTYELSGGARINRIFHERFPFELVKMEFDEKELRREISYAIKNIHGIRTGLFTPDMAFETIVKKQVKKIREPCLKCVDMVISELISTVRQCTKKLQQYPRLREEMERIVTTHIREREGRTKEQVMLLIDIELAYMNTNHEDFIGFANAQQRSNQMNKKKTSGNQDEILVIRKGWLTINNIGIMKGGSKEYWFVLTAENLSWYKDDEEKEKKYMLSVDNLKLRDVEKGFMSSKHIFALFNTEQRNVYKDYRQLELACETQEEVDSWKASFLRAGVYPERVGDKEKASETEENGSDSFMHSMDPQLERQVETIRNLVDSYMAIVNKTVRDLMPKTIMHLMINNTKEFIFSELLANLYSCGDQNTLMEESAEQAQRRDEMLRMYHALKEALSIIGDINTTTVSTPMPPPVDDSWLQVQSVPAGRRSPTSSPTPQRRAPAVPPARPGSRGPAPGPPPAGSALGGAPPVPSRPGASPDPFGPPPQVPSRPNRAPPGVPSRSGQASPSRPESPRPPFDL
Consider B2, for which, in data set [2], the binding result is reported as “binds”.

B3: N-terminal His-tagged human dynamin 1 (hDyn1) (natural protein)
chain: B2 chain
Take B3: in data set [1], the binding result is listed as “binds”.
